Laboratory results reported in publication PMC11969024 (2025).

B1: peptide HD2 (from tick evasin EVA4) / CCL8 (biotinylated, synthetic) (parent complex)
chain 1: EEDDYTAYAPLTCYFT
chain 2: QPDSVSIPITCCFNVINRKIPIQRLESYTRITNIQCPKEAVIFKTKRGKEVCADPKERWVRDSMKHLDQIFQNLKP

Variants of: B1

Row | Variant | enrichment
1 | chain 1 F15H | 2.19 log2 (difference from the parental peptide)
2 | chain 1 F15Q | 2.57 log2 (difference from the parental peptide)
3 | chain 1 F15L | 1.43 log2 (difference from the parental peptide)
4 | chain 1 F15G | 0.793 log2 (difference from the parental peptide)
5 | chain 1 F15D | 0.871 log2 (difference from the parental peptide)
6 | chain 1 F15M | 2.61 log2 (difference from the parental peptide)
7 | chain 1 F15S | 1.91 log2 (difference from the parental peptide)
8 | chain 1 F15A | 2.51 log2 (difference from the parental peptide)
9 | chain 1 T12F | -1.18 log2 (difference from the parental peptide)
10 | chain 1 T12M | -0.433 log2 (difference from the parental peptide)
11 | chain 1 T12W | -1.55 log2 (difference from the parental peptide)
12 | chain 1 T12G | -3.67 log2 (difference from the parental peptide)
13 | chain 1 T12R | 0.0146 log2 (difference from the parental peptide)
14 | chain 1 T12E | -0.507 log2 (difference from the parental peptide)
15 | chain 1 T12C | -5.83 log2 (difference from the parental peptide)
16 | chain 1 T12Q | 0.904 log2 (difference from the parental peptide)
17 | chain 1 T12I | -0.26 log2 (difference from the parental peptide)
18 | chain 1 T12Y | -0.212 log2 (difference from the parental peptide)
19 | chain 1 T12L | 0.285 log2 (difference from the parental peptide)
20 | chain 1 T6S | 2.06 log2 (difference from the parental peptide)
21 | chain 1 T6L | -2.32 log2 (difference from the parental peptide)
22 | chain 1 T6A | 1.59 log2 (difference from the parental peptide)
23 | chain 1 T6M | -0.0579 log2 (difference from the parental peptide)
24 | chain 1 T6H | -0.816 log2 (difference from the parental peptide)
25 | chain 1 T6E | 2.76 log2 (difference from the parental peptide)

Row | Variant | enrichment
26 | chain 1 T6W | -0.802 log2 (difference from the parental peptide)
27 | chain 1 T6P | -1.36 log2 (difference from the parental peptide)
28 | chain 1 T6Y | -0.847 log2 (difference from the parental peptide)
29 | chain 1 T6G | 2.04 log2 (difference from the parental peptide)
30 | chain 1 T6F | -4.21 log2 (difference from the parental peptide)
31 | chain 1 Y8F | 1.24 log2 (difference from the parental peptide)
32 | chain 1 Y8I | -8.9 log2 (difference from the parental peptide)
33 | chain 1 Y8S | -4.18 log2 (difference from the parental peptide)
34 | chain 1 Y8C | -9.2 log2 (difference from the parental peptide)
35 | chain 1 Y8N | -4.48 log2 (difference from the parental peptide)
36 | chain 1 Y8V | -4.32 log2 (difference from the parental peptide)
37 | chain 1 Y8H | -4.28 log2 (difference from the parental peptide)
38 | chain 1 Y8T | -8 log2 (difference from the parental peptide)
39 | chain 1 C13D | -4.59 log2 (difference from the parental peptide)
40 | chain 1 C13E | -4.45 log2 (difference from the parental peptide)
41 | chain 1 C13G | -1.56 log2 (difference from the parental peptide)
42 | chain 1 C13V | 0.0797 log2 (difference from the parental peptide)
43 | chain 1 C13M | -0.513 log2 (difference from the parental peptide)
44 | chain 1 C13I | -0.427 log2 (difference from the parental peptide)
45 | chain 1 C13Q | -1.97 log2 (difference from the parental peptide)
46 | chain 1 C13Y | -0.338 log2 (difference from the parental peptide)
47 | chain 1 A9Y | -4.23 log2 (difference from the parental peptide)
48 | chain 1 A9F | -4.42 log2 (difference from the parental peptide)
49 | chain 1 A9D | -7.75 log2 (difference from the parental peptide)
50 | chain 1 A9I | -5.81 log2 (difference from the parental peptide)

Row | Variant | enrichment
51 | chain 1 A9L | -3.92 log2 (difference from the parental peptide)
52 | chain 1 A9C | -9.61 log2 (difference from the parental peptide)
53 | chain 1 A9E | 1.36 log2 (difference from the parental peptide)
54 | chain 1 A9Q | 0.272 log2 (difference from the parental peptide)
55 | chain 1 A9K | -1.29 log2 (difference from the parental peptide)
56 | chain 1 A9G | -0.437 log2 (difference from the parental peptide)
57 | chain 1 A9H | -2.52 log2 (difference from the parental peptide)
58 | chain 1 T16Q | 1.96 log2 (difference from the parental peptide)
59 | chain 1 T16L | 0.738 log2 (difference from the parental peptide)
60 | chain 1 T16Y | -0.142 log2 (difference from the parental peptide)
61 | chain 1 T16E | 1.25 log2 (difference from the parental peptide)
62 | chain 1 T16S | 1.37 log2 (difference from the parental peptide)
63 | chain 1 T16V | 0.537 log2 (difference from the parental peptide)
64 | chain 1 T16R | 0.603 log2 (difference from the parental peptide)
65 | chain 1 T16F | 0.115 log2 (difference from the parental peptide)
66 | chain 1 T16G | 1.07 log2 (difference from the parental peptide)
67 | chain 1 T16W | -0.46 log2 (difference from the parental peptide)
68 | chain 1 T16M | 0.502 log2 (difference from the parental peptide)
69 | chain 1 P10W | -8.37 log2 (difference from the parental peptide)
70 | chain 1 P10E | -7.42 log2 (difference from the parental peptide)
71 | chain 1 P10A | -8.23 log2 (difference from the parental peptide)
72 | chain 1 P10Q | -5.91 log2 (difference from the parental peptide)
73 | chain 1 P10T | -7.38 log2 (difference from the parental peptide)
74 | chain 1 P10G | -9.74 log2 (difference from the parental peptide)
75 | chain 1 P10Y | -6.5 log2 (difference from the parental peptide)

Row | Variant | enrichment
76 | chain 1 P10S | -8.71 log2 (difference from the parental peptide)
77 | chain 1 E2W | -1.39 log2 (difference from the parental peptide)
78 | chain 1 E2L | -1.7 log2 (difference from the parental peptide)
79 | chain 1 E2R | -3.19 log2 (difference from the parental peptide)
80 | chain 1 E2H | -2.03 log2 (difference from the parental peptide)
81 | chain 1 E2D | 1.04 log2 (difference from the parental peptide)
82 | chain 1 E2M | -2.24 log2 (difference from the parental peptide)
83 | chain 1 E2K | -2.67 log2 (difference from the parental peptide)
84 | chain 1 E2N | -1.75 log2 (difference from the parental peptide)
85 | chain 1 E2Q | -2.83 log2 (difference from the parental peptide)
86 | chain 1 E2V | -1.43 log2 (difference from the parental peptide)
87 | chain 1 L11M | 2.26 log2 (difference from the parental peptide)
88 | chain 1 L11S | 1.65 log2 (difference from the parental peptide)
89 | chain 1 L11C | 1.32 log2 (difference from the parental peptide)
90 | chain 1 L11R | 1.57 log2 (difference from the parental peptide)
91 | chain 1 L11G | -1.12 log2 (difference from the parental peptide)
92 | chain 1 L11D | -2.06 log2 (difference from the parental peptide)
93 | chain 1 L11A | 0.754 log2 (difference from the parental peptide)
94 | chain 1 E1N | -0.349 log2 (difference from the parental peptide)
95 | chain 1 E1S | -0.455 log2 (difference from the parental peptide)
96 | chain 1 E1L | -1.2 log2 (difference from the parental peptide)
97 | chain 1 E1F | -2.08 log2 (difference from the parental peptide)
98 | chain 1 E1D | 1.88 log2 (difference from the parental peptide)
99 | chain 1 E1M | -0.394 log2 (difference from the parental peptide)
100 | chain 1 E1T | -1.11 log2 (difference from the parental peptide)

Row | Variant | enrichment
101 | chain 1 E1G | -0.383 log2 (difference from the parental peptide)
102 | chain 1 E1K | -2.59 log2 (difference from the parental peptide)
103 | chain 1 E1P | -0.418 log2 (difference from the parental peptide)
104 | chain 1 E1V | -0.973 log2 (difference from the parental peptide)
105 | chain 1 D4Q | -1.83 log2 (difference from the parental peptide)
106 | chain 1 D4I | -3.36 log2 (difference from the parental peptide)
107 | chain 1 D4F | -4.31 log2 (difference from the parental peptide)
108 | chain 1 D4T | -2.87 log2 (difference from the parental peptide)
109 | chain 1 D4H | -4.48 log2 (difference from the parental peptide)
110 | chain 1 D4L | -3.87 log2 (difference from the parental peptide)
111 | chain 1 D4M | -3.9 log2 (difference from the parental peptide)
112 | chain 1 D3L | -2.94 log2 (difference from the parental peptide)
113 | chain 1 D3T | -3.23 log2 (difference from the parental peptide)
114 | chain 1 D3K | -4.88 log2 (difference from the parental peptide)
115 | chain 1 D3H | -2.58 log2 (difference from the parental peptide)
116 | chain 1 D3A | -1.64 log2 (difference from the parental peptide)
117 | chain 1 D3G | -2.58 log2 (difference from the parental peptide)
118 | chain 1 D3S | -2.23 log2 (difference from the parental peptide)
119 | chain 1 D3M | -3.45 log2 (difference from the parental peptide)
120 | chain 1 D3R | -4.97 log2 (difference from the parental peptide)
121 | chain 1 D3Y | -2.62 log2 (difference from the parental peptide)
122 | chain 1 D3C | -7.83 log2 (difference from the parental peptide)
123 | chain 1 D3P | -2.64 log2 (difference from the parental peptide)
124 | chain 1 D3I | -3.47 log2 (difference from the parental peptide)
125 | chain 1 D3N | -1.8 log2 (difference from the parental peptide)

Row | Variant | enrichment
126 | chain 1 A7M | 1.51 log2 (difference from the parental peptide)
127 | chain 1 A7Y | -0.0899 log2 (difference from the parental peptide)
128 | chain 1 A7L | 0.505 log2 (difference from the parental peptide)
129 | chain 1 A7V | -0.376 log2 (difference from the parental peptide)
130 | chain 1 A7G | 0.697 log2 (difference from the parental peptide)
131 | chain 1 A7C | -9.36 log2 (difference from the parental peptide)
132 | chain 1 A7Q | 0.712 log2 (difference from the parental peptide)
133 | chain 1 A7P | 0.181 log2 (difference from the parental peptide)
134 | chain 1 A7T | 0.325 log2 (difference from the parental peptide)
135 | chain 1 Y5V | -3.14 log2 (difference from the parental peptide)
136 | chain 1 Y5F | -0.0383 log2 (difference from the parental peptide)
137 | chain 1 Y5T | -4.38 log2 (difference from the parental peptide)
138 | chain 1 Y5N | -4.9 log2 (difference from the parental peptide)
139 | chain 1 Y5P | -6.25 log2 (difference from the parental peptide)
140 | chain 1 Y5A | -6.59 log2 (difference from the parental peptide)
141 | chain 1 Y5D | -3.76 log2 (difference from the parental peptide)
142 | chain 1 Y14G | -2.18 log2 (difference from the parental peptide)
143 | chain 1 Y14F | 0.904 log2 (difference from the parental peptide)
144 | chain 1 Y14H | 1.41 log2 (difference from the parental peptide)
145 | chain 1 Y14L | 0.559 log2 (difference from the parental peptide)
146 | chain 1 Y14S | -0.238 log2 (difference from the parental peptide)
147 | chain 1 Y14W | 0.518 log2 (difference from the parental peptide)
148 | chain 1 Y14D | -0.707 log2 (difference from the parental peptide)
149 | chain 1 Y14Q | 0.652 log2 (difference from the parental peptide)
150 | chain 1 Y14A | -0.507 log2 (difference from the parental peptide)
